Consider 14 molecules from patent JP2018153172A (dated 2018).

The target of assay [1] is T1, 可溶性ヒトgp130受容体 (soluble human gp130 receptor, extracellular region of SEQ ID NO 1 with six histidines) (human, UniProt P40189 23-619).
T1 construct: Secreted from CHO DG44 cells and purified on HisTrap; no cleavage site is stated; also called 可溶性ヒトgp130受容体タンパク質; ヒト可溶性gp130受容体
T1 sequence: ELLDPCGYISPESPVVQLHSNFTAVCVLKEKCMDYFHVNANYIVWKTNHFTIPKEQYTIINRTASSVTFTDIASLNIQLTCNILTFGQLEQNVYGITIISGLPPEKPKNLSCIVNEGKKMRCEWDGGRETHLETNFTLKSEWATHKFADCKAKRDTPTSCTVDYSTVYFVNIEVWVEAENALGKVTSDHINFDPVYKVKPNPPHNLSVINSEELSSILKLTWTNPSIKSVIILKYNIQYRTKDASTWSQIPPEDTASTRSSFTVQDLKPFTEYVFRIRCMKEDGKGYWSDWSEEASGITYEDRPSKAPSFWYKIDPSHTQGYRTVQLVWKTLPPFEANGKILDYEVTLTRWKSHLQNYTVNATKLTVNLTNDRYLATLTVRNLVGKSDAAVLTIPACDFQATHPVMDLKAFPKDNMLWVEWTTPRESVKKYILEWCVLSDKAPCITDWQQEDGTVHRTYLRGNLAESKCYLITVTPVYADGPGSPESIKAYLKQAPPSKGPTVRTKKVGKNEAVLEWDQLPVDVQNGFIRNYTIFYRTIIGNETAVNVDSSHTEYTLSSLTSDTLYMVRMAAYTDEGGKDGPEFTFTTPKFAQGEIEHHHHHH
Description: SPR, Biacore T200, gp130 on CM5 (4023 RU), COS1 supernatant as analyte, off-rate screening. In general terms: SPR reads the build-up and loss of mass on a sensor chip optically.

The target of assay [2] is T1, 可溶性ヒトgp130受容体 (soluble human gp130 …). Description: SPR, Biacore T200, gp130 amine-coupled on CM5 (389 RU), antibody as analyte.
Assay [3] shares this target. The assay can be described thus: SPR, Biacore T200, gp130 on CM5, antibody as analyte.
For assay [4] the target is unchanged. Description: ELISA, immobilised soluble human gp130, COS1 supernatant, anti-human antibody-HRP. A general note: ELISA stands for enzyme-linked immunosorbent assay.
The target is the same in assay [5]. Description: SPR, Biacore T200, gp130 amine-coupled on CM5 (266 RU), antibody as analyte.
Assay [6] has as its target T2, SEQ ID NO 127 (15-residue oligopeptide of human gp130) (human, also: linker added for immobilisation).
T2 construct: also called 配列番号127
T2 peptide: VQDLKPFTEYVFRIR
Description: peptide microarray, antibody at 10 ug/mL, fluorescence.

For assay [7], the target named is T3, SEQ ID NO 108 (15-residue oligopeptide of human gp130) (human, also: linker added for immobilisation).
T3 construct: also called 配列番号108
T3 peptide: SIKSVIILKYNIQYR
The description is as above.

For assay [8], the target named is T4, SEQ ID NO 109 (15-residue oligopeptide of human gp130) (human, also: linker added for immobilisation).
T4 construct: also called 配列番号109
T4 peptide: KSVIILKYNIQYRTK
The description is as above.

Assay [9] deals with T5, SEQ ID NO 128 (15-residue oligopeptide of human gp130) (human, also: linker added for immobilisation).
T5 construct: also called 配列番号128
T5 peptide: DLKPFTEYVFRIRCM
Described as above.

The target in assay [10] is T6, SEQ ID NO 110 (15-residue oligopeptide of human gp130) (human, also: linker added for immobilisation).
T6 construct: also called 配列番号110
T6 peptide: VIILKYNIQYRTKDA
Described as above.

The target in assay [11] is T1, 可溶性ヒトgp130受容体 (soluble human gp130 …). The assay can be described thus: ELISA, immobilised soluble human gp130, recombinant antibody from COS1 cells.
For assay [12] the target is unchanged. Description: SPR, Biacore T200, gp130 amine-coupled on CM5, antibody as analyte.

Positions count from the first letter of the chain named. Ends that are not written are not given here.

B1: ヒト化抗体A (H鎖 pFU-AH2, L鎖 AL−4F1) (antibody, V domains shown)
VH: QVQLQQPGAELVQPGTSVRLSCKASGYTFTDYNMDWVKQRPGQGLEWIGDINSHSGGIIYNQKFKDKATLTVDKSSSTAYMQLSSLTSEDSAVYYCTRTYYVYGHFFDYWGQGTLVTVSA
VL: DIQMTQSPSSLSASVGDRVTITCNVSSSVTSMYWYQQKQGKSPQLLVYLTSNLASGVPSRFSGSGSGTQFSLKINNLQPEDFGSYYCQQWSTNPLTFGQGTKLDLKR
notes: also called AL-L4F1 with AH2
Regarding B1, in [1], the binding result is recorded as “binds”.

B2: ヒト化抗体AH2−L13H10 (antibody, V domains shown)
VH: B1 VH
VL: EIVLTQSPDFQSVTPKEKVTITCNVSSSVTSMYWYQQKPGKAPKLLVYLTSNLASGVPSRFSGSGSGTDFTLTINSLEAEDAATYYCQQWSTNPLTFGQGTKLEIKR
notes: also called AH2−13H10; AH2 with AL-13H10 (AL-L13H10)
B2: in assay [2], the dissociation constant Kd amounted to 2.27 nM, the koff is 0.000203 s⁻¹ and the association rate constant (kon) is 89300 M⁻¹ s⁻¹.

B3: ヒト化抗体AH2−2L6E6 (antibody, human IgG1, kappa, V domains shown)
VH: B1 VH with T97A
VL: ELVLTQSPGTLSLSAGERATLSCNVSSSVTSMYWYQQKPGKAPKLLIYLTSNLASGVPSRFSGSGSGTDYTFTISSLQPEDIATYYCQQWSTNPLTFGQGTKVEIKR
For the molecule B3, in assay [3], the affinity, expressed as Kd, was 0.991 nM; the koff is 0.000209 s⁻¹; the kon is 211000 M⁻¹ s⁻¹.

B4: ヒト化抗体AH2−2AL4F1 (antibody, human IgG1, kappa, V domains shown)
VH: B1 VH with T97A
VL: B1 VL
notes: also called AH2−2L4F1
Take B4: in assay [3], the Kd was determined as 1.98 nM, the koff was determined as 0.000221 s⁻¹ and the kon came out at 111000 M⁻¹ s⁻¹.

B5: ヒト化抗体A (H鎖 pFU-AH2, L鎖 AL−14A10) (antibody, V domains shown)
VH: B1 VH
VL: DIQMTQSPSTLSASIGDRVTITCNVSSSVTSMYWYQQKPGKAPKLLIYLTSNLASGVPSRFSGSGSGTDFTLTISSLQPEDFATYYCQQWSTNPLTFGQGTKLEIKR
notes: also called AL-L14A10 with AH2
With B5, in assay [1], the binding result is given as “binds”.

B6: ヒト化抗体A (H鎖 pFU-AH2, L鎖 AL−6E6) (antibody, V domains shown)
VH: B1 VH
VL: B3 VL
notes: also called AL-L6E6 with AH2
With B6, in assay [1], the binding result is recorded as “binds”.

B7: ヒト化抗体AH2−2L14A10 (antibody, human IgG1, kappa, V domains shown)
VH: B1 VH with T97A
VL: B5 VL
In [3], B7 displayed a dissociation constant (Kd) of 1.3 nM, a koff of 0.000202 s⁻¹ and a kon of 155000 M⁻¹ s⁻¹.

B8: ヒト化抗体A AH7−AL8 (antibody, V domains shown)
VH: EVQLVQSGAEVKKPGATVKISCKASGYTFTDYNMDWVRQAPGQGLEWIGDINSHSGGIIYNQKFKDWVTMTRDTSINTAYMELRLRSDDTAVYYCARTYYVYGHFFDYWGQGTLVTVSA
VL: ELVLTQSPGTLSLSAGERATLSCNVSSSVTSMYWYQQKPGKAPKLLIYLTSNLASGAPSRFSGSGSGTDFTLTISSLQPDDFATYYCQQWSTNPLTFGGGTKLEIK
notes: VH on human IgG1 constant region (pFUSEss-CHIg-hG1), VL on human kappa constant region (pFUSE2ss-CLIg-hk); also called AH7-AL8
Turning to B8, in assay [4], the binding result was “binds”.

B9: ヒト化抗体A AH9−AL7 (antibody, V domains shown)
VH: EVQLVESGGGLVQPGGSLRLSCKASGYTFTDYNMDWVRQAPGKGLEWVGDINSHSGGIIYNQKFKDRFTISADTSKNTAYLQMNSLRAEDTAVYYCARTYYVYGHFFDYWGQGTLVTVSS
VL: DIQMTQSPSTLSASIGDRVTITCNVSSSVTSMYWFQQRPGQAPKVLIYLTSNLASGVPSRFSGSGSGTDFTFTISSLQPEDIATYYCQQWSTNPLTFGGGTKVDIK
notes: VH on human IgG1 constant region (pFUSEss-CHIg-hG1), VL on human kappa constant region (pFUSE2ss-CLIg-hk); also called AH9-AL7
Turning to B9, in assay [4], the binding result is “binds”.

B10: ヒト化抗体A AH8−AL4 (antibody, V domains shown)
VH: EVQLVQSGAEVKKPGASVKVSCKASGYTFTDYNMDWVRQAPGKGLEWVGDINSHSGGIIYNQKFKDRVTITADRSTSTVYMELSGLRSEDTAVYYCARTYYVYGHFFDYWGKGTLVTVSS
VL: DIQMTQSPSSLSASVGDRVTITCNVSSSVTSMYWYQQKQGKSPQLLVYLTSNLASGVPSRFSGSGSGTDFTLTISSLQPEDFATYYCQQWSTNPLTFGQGTKVEIK
notes: VH on human IgG1 constant region (pFUSEss-CHIg-hG1), VL on human kappa constant region (pFUSE2ss-CLIg-hk); also called AH8-AL4
With B10, the binding result in [4] is “binds”.

B11: ヒト化抗体AH2−AL4 (antibody, V domains shown)
VH: B1 VH
VL: B10 VL
notes: VH on human IgG1 constant region (pFUSEss-CHIg-hG1), VL on human kappa constant region (pFUSE2ss-CLIg-hk); also called AH2-AL4
Turning to B11, in [5], the Kd stood at 4.61 nM, the koff came to 0.000289 s⁻¹ and the kon was 62700 M⁻¹ s⁻¹.

B12: ヒト化抗体AH2−AL3 (antibody, V domains shown)
VH: B1 VH
VL: B10 VL with S10T, Q39P, S42A, Q44K, V47I, S59A, D69E, E80D, I105V
notes: VH on human IgG1 constant region (pFUSEss-CHIg-hG1), VL on human kappa constant region (pFUSE2ss-CLIg-hk); also called AH2-AL3
In assay [5], B12 came in with a Kd of 3.8 nM, a koff of 0.000268 s⁻¹ and a kon of 70600 M⁻¹ s⁻¹.

B13: 抗体B (antibody B, mouse anti-human gp130 monoclonal antibody) (antibody, V domains shown)
VH: EVQLQQSGAELVKPGASVKLSCTASGFNIRDTYMHWVKQRPEQGLEWIGRIDPANGNTKYDPKFQDKATMTADTSSNTAYLQLSSLTSEDTAVYYCARRGNYFYAMDYWGQGTSVTVSS
VL: DIVLTQSPASLAVSLGQRATISCRASESVEYYGTSLMQWYQQKPGQPPKLLIYVASNVESGVPARFSGSGSGTDFSLNIHPVEEDDIAMYFCQQSRKVPWTFGGGTKLEIKR
notes: Mouse IgG2b, kappa; Entries are the polypeptides as encoded by the cDNA (leader probably included)
Regarding B13, the binding result in assay [6], in assay [7], in [8], in assay [9], in assay [10] and in assay [11] was “binds” each time.

B14: 抗体A (antibody A, mouse anti-human gp130 monoclonal antibody) (antibody, mouse IgG1, kappa, V domains shown)
VH: EVLLQQSGPELVKPGASVKIPCKASGYTFTDYNMDWVKQSHGKSLEWIGDINSHSGGIIYNQKFKDKAILTVDKSSSTAYMELRSLTSEDTAVYYCARTYYVYGHFFDYWGQGTTLTVSS
VL: QSVLTQSPAFISASPGEKVTMTCNVSSSVTSMYWYQQKPGSSPKPWIYLTSNLASGVPPRFSGSGSGTSYSLTISSLEAEDAATYYCQQWSTNPLTFGAGTKLELKR
notes: Mouse IgG1, kappa; also called マウス抗体A; ヒト化前の抗体A(マウス抗体)
As for B14, binding in assay [12] was put at a Kd of 0.667 nM. The koff in assay [12] was 0.000116 s⁻¹. Moreover, in assay [12], the kon is 174000 M⁻¹ s⁻¹. For the same molecule, the binding result in assay [6], in [7], in [8], in assay [9] and in assay [10] was “binds” each time.

For orientation: Kd means the concentration at which binding is half-saturated. One may read the koff as the rate constant with which the complex falls apart. Low readings indicate a long-lived complex, high ones a short-lived complex. The kon is the rate constant with which the complex forms. Lower therefore signals slower complex formation.
